Target: carcinoembryonic antigen (human) (UniProt P06731)
Sequence of UniProt P06731 (P06731 35-702): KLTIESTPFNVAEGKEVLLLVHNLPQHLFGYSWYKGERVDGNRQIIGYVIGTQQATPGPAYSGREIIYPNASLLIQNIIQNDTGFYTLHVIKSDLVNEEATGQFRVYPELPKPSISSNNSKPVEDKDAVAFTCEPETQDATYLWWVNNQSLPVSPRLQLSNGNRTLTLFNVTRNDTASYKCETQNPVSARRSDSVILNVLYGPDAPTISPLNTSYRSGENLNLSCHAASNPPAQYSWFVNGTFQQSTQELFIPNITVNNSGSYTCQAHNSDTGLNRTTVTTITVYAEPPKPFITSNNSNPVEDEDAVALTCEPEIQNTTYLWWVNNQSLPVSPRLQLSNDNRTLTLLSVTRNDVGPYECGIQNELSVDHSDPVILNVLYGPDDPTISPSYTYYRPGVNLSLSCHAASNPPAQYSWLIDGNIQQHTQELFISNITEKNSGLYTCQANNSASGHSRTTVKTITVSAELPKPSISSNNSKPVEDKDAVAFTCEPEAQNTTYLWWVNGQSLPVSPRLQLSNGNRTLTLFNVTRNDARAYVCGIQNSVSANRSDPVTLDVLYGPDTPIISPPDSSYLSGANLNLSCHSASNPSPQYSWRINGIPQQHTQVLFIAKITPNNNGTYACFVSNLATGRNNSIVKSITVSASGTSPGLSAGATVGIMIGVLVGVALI

Work on “Monoclonal antibody to carcinoembryonic antigen (CEA; clone CD66e, US Biological) covalently conjugated to anionic polyaspartate (3K MW)” yielded a percent of colon carcinoma cells positive for fluorescein signal of 87.6%.

From patent US8974774
